From article doi:10.1101/2023.08.01.551421 (bioRxiv, 2023)

Tests used:
[1] = molecular target: GBP1 M139R, non-farnesylated (human) (UniProt P32455); test: SEC
[2] = molecular target: GBP1 M139E, non-farnesylated (human) (UniProt P32455); test: SEC
[3] = molecular target: GBP1 Δ207-223 variant, non-farnesylated (human) (UniProt P32455)
[4] = molecular target: GBP1 Δ207-223 variant, non-farnesylated (human) (UniProt P32455); test: cross-linking
[5] = molecular target: GBP1 Δ207-223 variant, farnesylated (human) (UniProt P32455); test: cross-linking
[6] = molecular target: T1, human guanylate-binding protein 1 (GBP1), wild type, non-farnesylated (human), P32455; test: GTP hydrolysis assay; conditions: remark: other sources report otherwise
T1 chain: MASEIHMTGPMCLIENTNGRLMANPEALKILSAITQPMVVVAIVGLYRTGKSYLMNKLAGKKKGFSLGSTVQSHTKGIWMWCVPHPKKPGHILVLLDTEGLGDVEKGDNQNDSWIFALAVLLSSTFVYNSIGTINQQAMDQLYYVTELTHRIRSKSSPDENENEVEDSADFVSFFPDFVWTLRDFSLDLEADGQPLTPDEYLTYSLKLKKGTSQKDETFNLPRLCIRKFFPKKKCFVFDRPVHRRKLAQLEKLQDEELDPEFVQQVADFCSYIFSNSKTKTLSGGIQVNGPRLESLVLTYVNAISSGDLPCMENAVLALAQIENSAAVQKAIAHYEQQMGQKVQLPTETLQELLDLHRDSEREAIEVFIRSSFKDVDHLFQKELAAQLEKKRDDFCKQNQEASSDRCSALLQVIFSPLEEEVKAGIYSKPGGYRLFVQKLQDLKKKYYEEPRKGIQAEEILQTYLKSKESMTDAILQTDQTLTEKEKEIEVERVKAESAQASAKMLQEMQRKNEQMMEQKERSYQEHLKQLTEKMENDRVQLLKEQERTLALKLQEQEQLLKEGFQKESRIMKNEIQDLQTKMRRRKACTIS

[7] = molecular target: T1, human guanylate-binding protein 1 …; test: cross-linking; conditions: remark: other sources report otherwise
[8] = molecular target: T2, human guanylate-binding protein 1 (GBP1), wild type, farnesylated (human), P32455; test: cryo-EM structure; conditions: remark: other sources report otherwise
T2 chain: T1 chain

“GBP1 M139R, non-farnesylated (from UniProt P32455 1-592) (natural protein)” showed a stoichiometry N [1] of 2.

For “GBP1 M139E, non-farnesylated (from UniProt P32455 1-592) (natural protein)”, the stoichiometry N [2] was 2.

“GBP1 Δ207-223 variant, non-farnesylated (from UniProt P32455 1-592) (natural protein)” was tested, and the catalytic GTPase activity against wild-type (GTP hydrolysis assay) [3] was 1.7 fold and the stoichiometry N [4] was 2.

“GBP1 Δ207-223 variant, farnesylated (from UniProt P32455) (natural protein)” showed a stoichiometry N [5] of 2.

B1: human guanylate-binding protein 1 (GBP1), wild type, non-farnesylated, P32455 1-592 (natural protein)
chain: T1 chain
B1 was tested, and the Kd [6] was 1.9 µM and the stoichiometry N [7] was 2.

B2: human guanylate-binding protein 1 (GBP1), wild type, farnesylated, P32455 (natural protein)
chain: T1 chain
modifications: here or on the partner: farnesyl moiety, C-terminal (CaaX box motif); farnesyl moiety, C-terminal (CaaX box motif)
B2 was tested, and the subunits (outstretched GBP1 dimers) in one planar disk [8] was 30.
